Experimental data: US20030119733A1, “Compositions and methods for inhibiting hepatocyte invasion by malarial sporozoites” (New York University, priority 1992, published 2003)

B1: CSFZ (Cys): residues 27-123 plus NANP (a single instance) plus residues 300-411 of P. falciparum CS protein (protein)
chain: GSSSNTRVLNELNYDNAGTNLYNELEMNYYGKQENWYSLKKNSRSLGENDDGNNNNGDNGREGKDEDKRDGNNEDNEKLRKPKHKKLKQPGDGNPDPNANPMPNDPNRNVDENANANNAVKNNNNEEPSDKHIEQYLKKIKNSISTEWSPCSVTCGNGIQVRIKPGSANKPKDELDYENDIEKKICKMEKCSSVFNVVNSSIGLIMVLSFLFL

Tests used:
[1] = test system: CS binding to HepG2 cells; test: Enzyme treatment of HepG2 cells before CS binding; parameters: species or system human; conditions: heparitinase from 5 U/ml, chondroitinase ABC from 1 U/ml; CSFZ(Cys) 5 μg/ml
Protocol: In some experiments the HepG2 cells were treated with either heparitinase (Sigma) or chondroitinase ABC (ICN) before incubation with the CS. Heparitinase treatment was performed in 0.05 M acetate buffer, pH 6.0, containing 1 mg/ml BSA and 1 mM PMSF, 5μg/ml leupeptin and pepstatin. Cells were treated for 3 hours at 37° C. and then were washed 3× with TBS before protein was added. Chondroitinase ABC treatment was performed overnight at 37° C. in 0.1 M Tris/HCl, pH 8.0, 0.03 M sodium acetate and 0.1% BSA, and washed 3× with TBS. Enzyme-treated cells were then incubated with CS as outlined above.
Paraformaldehyde-fixed HepG2 cells were preincubated with varying amounts of enzyme, washed and then incubated with 5 μg/ml of CSFZ(Cys). […] Heparitinase and chondroitinase ABC were used at initial concentrations of 5 U/ml and 1 U/ml, respectively. […] Each point represents the mean of triplicates, and percent inhibition was calculated by comparison to cells that were not treated with enzyme.

[2] = test system: plasma membrane receptors for CS; test: Enzyme digestion of human liver sections before CS27IVC immunolabeling; format: binding; conditions: 2 hours 37°; chondroitinase ABC 2 U/ml, heparitinase 20 U/ml
Protocol: Normal rat kidney tissue was fixed with 4% paraformaldehyde and 1% glutaraldehyde in phosphate-buffered saline (PBS) and embedded in LR White; normal human liver was fixed similarly and embedded in Lowicryl K4M (Cerami et al., Cell 70:1021-1033, 1992). Ultrathin sections were sequentially labeled with 10-50 μg/ml CS27IVC, 15 μg/ml mAb 2A10 and a 1:30 dilution of PAG15. Prior to immunolabeling, part of the sections were incubated for 120 min at 37° C. with heparitinase and chondroitinase ABC (both ICN) using concentrations of 20 U/ml and 2 U/ml, respectively. Control specimens were incubated only with the gold markers or with mAb 2A10 and PAG15.
Human liver sections were incubated with heparitinase or chondroitinase ABC for 2 hours at 37° C., prior to immunolabeling with recombinant CS. The sections were then labelled with CS27IVC followed by mAb 2A10 and PAG15. FIGS. 8a and 8b are electron micrographs of Lowicryl K4M-embedded sections. The section of FIG. 8a was treated with 2 U/ml chondroitinase ABC (ICN) for 2 hour at 37° before the immunolabeling. The typical CS label on the space of Disse (D) and on the lateral domain of the hepatocyte plasma membrane (arrows) and on lysosomes (L) was unaltered. The patchy pattern of CS-labeled hepatocyte microvilli within the space of Disse was still present in the chondroitinase-treated sections (FIG. 8a). […]

rat liver sections = test: Staining of frozen tissue sections with recombinant CS polypeptides; format: binding; conditions: revealed with MAb 2A10, fluorescence; CS27IVC 50-5 μg/ml, Falciparum-2 25 μg/ml, Falciparum-1 up to 250 μg/ml
Protocol: The procedure was carried out essentially as described by Dukor P. et al., Proc. Natl. Acad. Sci. USA 67:991-997, 1970 and Imai Y. et al., J. Cell. Biol. 111:1225-1232, 1990. Rats were euthanized with CO2. Small pieces of the liver, spleen, heart, brain and lung were removed, snap frozen in liquid nitrogen, embedded in Tissue Tek O.C.T. (Miles, Inc., Naperville, Ill.), and cut into 5 μm sections. Sections were dried for 30 min., fixed for 10 min. in 4% paraformaldehyde, rinsed three times with phosphate-buffered saline (PBS), and either used immediately or stored at 4° C. in 1% BSA, 0.5% Tween, PBS (BSA/TPBS). After blocking with 100 mM glycine (pH 7.2) and with BSA/TPBS, the sections were sequentially incubated at 37° C. with recombinant proteins for 1 hr, 10 μg/ml MAb 2A10 for 45 min., and rat anti-mouse immunoglobulin conjugated to fluorescein isothiocyanate (Boehringer Mannheim, Indianapolis, Ind.) for 45 min. The slides were counterstained for 10 min. with 0.3% Evans blue, rinsed extensively in PBS, and finally observed under a fluorescence microscope. For peptide inhibition experiments, the sections were first incubated with the peptide at various concentrations in BSA/TPBS for 1 hour at 37° C., washed six times with BSA/TPBS, and then stained with 2.5 μg/ml CS recombinant protein as described above. In a few experiments, the tissues were fixed for 10 min. with methanol, acetone, or 4% paraformaldehyde containing 0.5% glutaraldehyde.
Frozen sections of various rat organs were incubated with recombinant CS27IVC polypeptide. […] The staining closely followed the sinusoidal spaces of the hepatic lobules, indicating CS binding to the hepatocyte membrane. Other areas of the liver sections and sections of other organs (spleen, lung, heart or brain) were not stained. Control sections (incubated with CS27IVC in the absence of antibody or vice versa) were not stained either.
To define the region of the CS that mediates the perisinusoidal staining various other recombinant constructs were also used in the frozen section assay.

HepG2 cells = test: HepG2 cell binding assay of recombinant CS polypeptides; parameters: species or system human; conditions: indirect immunofluorescence
Protocol: For indirect immunofluorescence, HepG2 cells (ATCC number HB8065, Rockville, Md.; Knowles, B. P., et al., Science 209:497-499, 1980) were grown on slides (Cel-Line Associates, Inc., Newfield, N.J.) overnight in minimum essential medium with 10% fetal calf serum (FCS-MEM; GIBCO, Grand Island, N.Y.), 1 mM L-glutamine (GIBCO), 3 mg/ml glucose (Sigma), 1×nonessential amino acids (GIBCO), 50 μg/ml penicillin, and 100 μg/ml streptomycin (GIBCO). For the enzyme-linked immunosorbent assay, 10^5 HepG2 cells were deposited in 96-well Falcon tissue culture plates (Becton Dickinson, Oxnard, Calif.) and grown for 24 hr. in FCS-MEM. The cells were fixed with 4% paraformaldehyde, washed three times with PBS, and stored at 4° C. in BSA/TPBS until use. Before the experiments, plates were blocked for 2 hr. at 37° C. with 1% gelatin, 0.05% Tween in PBS (pH 7.4) (gelatin/TPBS). […] After 15 min., fluorescence was read in a Fluoroskan II plate reader (Flow Lab Inc., McLean, Va.) with excitation filter 350 nm and emission filter 460 nm. […]
In order to quantify more accurately the effectiveness of various peptides in inhibiting the CS27IVC binding to hepatocytes additional experiments were performed using the human hepatoma cell line HepG2. This cell line is invaded readily by P.berghei sporozoites. […] The results, expressed in fluorescence units v. protein concentration are depicted in FIG. 6. […]

[3] = test system: heparan sulfate proteoglycans (HSPG); test: CS/proteoglycan co-immunoprecipitation; format: binding, human
Protocol: All extracts and supernatants were first precleared with normal rabbit serum and Staph A cells. Then 32 μg/ml of CSFZ(Cys) or 64 μg/ml of CS27IVC, Falc-2 or Falc-1 were added for 30 minutes, followed by 10.8 μg/ml mAb 2A10 for 30 minutes, and 1% Staph A cells (final concentrations). The suspensions were shaken for 1 to 5 hours at 4° C. The Staph A cells were washed 3 times with the lysis buffer A, 2 times with lysis buffer B (10 mM Tris-HCl, pH 7.2, containing 100 mM NaCl and 0.5% NP40), 1 time with 50 mM Tris-HCl, ph 7.2, and were processed in this buffer for electrophoresis under reducing and non-reducing conditions.
Extracts of cells metabolically labeled with ^35SO4 were incubated for 30 minutes at 4° C. with 32 μg/ml of recombinant CSFZ(Cys) or 64 μg/ml Falc-1, and were immunoprecipitated with mAb 2A10 and Staph A cells. […] Immunoprecipitation with Falc-1 was negative. The SDS-PAGE patterns of the total lysate of HepG2 cells, and of the molecules co-immunoprecipitated with CSFZ(Cys) resembled the corresponding liver SDS-PAGE patterns. In kidney lysates, CSFZ(Cys) selectively immunoprecipitated a band of slightly lower molecular weight than the total kidney sulfated molecules.
Sub-confluent HepG2 cells were incubated with various concentrations of trypsin for 5 minutes at 4° C. […] Independently of the trypsin concentration, about 80% of the released HSPG was co-immunoprecipitated by 32 μg/ml CSFZ(Cys) and 10.8 μg/ml mAb 2A10. Under the same conditions, Falc-1 was negative.
^35SO4-labeled trypsin-released proteoglycan (total supernatant) was precipitated by CSFZ(Cys) (32 μg/ml), Falc-2 (64 μg/ml), CS27IVC (64 μg/ml) and Falc-1 (64 μg/ml). The labeled molecules were incubated with CSFZ(Cys), CS27IVC, and Falc-2 at equivalent concentrations of Region II+, and co-immunoprecipitated with the mAb 2A10. CSFZ(Cys), lacking most of the repeat region, precipitated up to 86% of the total sulfate-labeled proteoglycans (see FIG. 14), while CS27IVC and Falc-2 precipitated only 18% and 6% of the counts, respectively. Falc-1, which lacks Region II+, was negative.
Subconfluent sulfate-labeled HepG2 cells were incubated with 20 μg/ml trypsin for 5 minutes at 4° C., and the supernatants were loaded onto an anion exchange chromatography Pharmacia mono-Q column. These were eluted with a 0 to 2 M NaCl gradient in the presence of 7 M urea. […] Protein was not detectable in the labeled peaks. One ml fractions were collected and counted.

Row | Molecule | effect of enzyme treatment of HepG2 cells on CS binding [1] | CS27IVC label on human liver sections after enzyme treatment [2] | binding (staining) to frozen liver sections (rat liver sections) | binding to HepG2 cells (HepG2 cells) | co-immunoprecipitation of 35SO4-labeled sulfated molecules ([3]; lysates of rat liver, HepG2 cells, kidney, CSFZ(Cys) 32 μg/ml, others 64 μg/ml) | counts in the mono-Q peak co-immunoprecipitated ([3]; peak at 0.6 to 0.8 M NaCl) | released HSPG co-immunoprecipitated ([3]; trypsin-released from HepG2 cells, CSFZ(Cys) 32 μg/ml, mAb 2A10 10.8 μg/ml) | total sulfate-labeled proteoglycans precipitated ([3]; trypsin-released proteoglycan, equivalent concentrations of Region II+)
1 | chondroitinase ABC | no effect | unaltered |  |  |  |  |  | 
2 | B1 |  |  | bound with the same pattern as CS27IVC | bound | co-immunoprecipitated sulfated molecules | about 80% | about 80% | up to 86%
